Tests used:
human ADAMTS5 = target: T1, human ADAMTS5 (Homo sapiens, UniProt Q9UNA0); experiment: FRET-based human ADAMTS5 enzymatic assay; format: biochemical
T1 sequence (Q9UNA0 262-930): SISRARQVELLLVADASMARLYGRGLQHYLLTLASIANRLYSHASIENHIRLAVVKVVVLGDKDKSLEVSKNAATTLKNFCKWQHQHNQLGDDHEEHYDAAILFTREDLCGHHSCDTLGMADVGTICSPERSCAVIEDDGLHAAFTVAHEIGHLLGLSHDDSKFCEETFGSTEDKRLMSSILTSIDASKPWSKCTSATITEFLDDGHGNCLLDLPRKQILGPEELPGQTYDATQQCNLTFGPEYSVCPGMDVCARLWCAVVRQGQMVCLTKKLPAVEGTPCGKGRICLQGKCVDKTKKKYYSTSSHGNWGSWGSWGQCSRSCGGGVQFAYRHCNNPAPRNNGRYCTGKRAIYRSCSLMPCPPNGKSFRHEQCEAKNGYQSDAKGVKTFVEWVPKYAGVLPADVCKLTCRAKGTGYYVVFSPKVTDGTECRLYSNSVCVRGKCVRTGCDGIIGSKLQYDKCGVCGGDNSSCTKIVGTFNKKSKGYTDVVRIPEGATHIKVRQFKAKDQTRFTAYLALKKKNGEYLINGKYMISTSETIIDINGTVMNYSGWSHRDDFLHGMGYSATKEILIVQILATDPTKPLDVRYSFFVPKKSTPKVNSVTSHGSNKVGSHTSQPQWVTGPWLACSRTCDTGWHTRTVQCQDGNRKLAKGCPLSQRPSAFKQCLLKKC
Procedure: In short, a periplasmic extract of ISVD 02F03 was tested for binding to recombinant human ADAMTS5 by binding ELISA. Next, it was confirmed that ISVD 02F03 was able to prevent ADAMTS5-mediated cleavage of Aggrecan in a FRET-based human ADAMTS5 enzymatic assay. Next to the FRET-based assay, an AlphaLISA (Perkin Elmer, Waltham, MA, US) based human ADAMTS5 assay with a biotinylated 43-mer Aggrecan oligopeptide as substrate was performed. Upon ADAMTS5 cleavage of this substrate, a biotinylated ARGSV neo-epitope product is released and can be detected by streptavidin-AlphaScreen donor beads and an α-neo-epitope (“ARGSV”) antibody captured on anti-mouse IgG-coated AlphaLISA acceptor beads, resulting in the generation of a luminescence AlphaScreen signal upon laser excitation. To determine the ability of ISVD 02F03 to prevent ADAMTS5-mediated cleavage of the substrate, the decrease in signal was analysed in function of ISVD 02F03 concentration and IC50 values were calculated.

[1] = test system: cynomolgus monkey ADAMTS5; experiment: SPR-based off-rate analysis, cynomolgus ADAMTS5; format: binding; settings: Experiment 1
Procedure: (§1) Species cross-reactivity was initially evaluated via SPR-based off-rate analysis on a Biacore T100 instrument. Polypeptides were tested for binding to human, cynomolgus monkey (“cyno”), guinea pig, mouse, and bovine ADAMTS5. To this end, recombinant ADAMTS5 was immobilized onto a CM5 chip via amine coupling using EDC and NHS. Purified ISVD 02F03 was injected for 2 minutes at a concentration of 100 nM and allowed to dissociate for 15 min at a flow rate of 45 μl/min. Off-rate for each individual ADAMTS5 was determined by fitting a 1:1 interaction model (Langmuir model) onto the individual dissociation curves using the BIA Evaluation software. As a reference, off-rates on human ADAMTS5 were determined in each experiment.

guinea pig ADAMTS5 = target: T2, guinea pig ADAMTS5 (Cavia porcellus, UniProt H0VFP0); experiment: SPR-based off-rate analysis, guinea pig ADAMTS5; format: binding; settings: Experiment 1
T2 sequence (H0VFP0 21-906): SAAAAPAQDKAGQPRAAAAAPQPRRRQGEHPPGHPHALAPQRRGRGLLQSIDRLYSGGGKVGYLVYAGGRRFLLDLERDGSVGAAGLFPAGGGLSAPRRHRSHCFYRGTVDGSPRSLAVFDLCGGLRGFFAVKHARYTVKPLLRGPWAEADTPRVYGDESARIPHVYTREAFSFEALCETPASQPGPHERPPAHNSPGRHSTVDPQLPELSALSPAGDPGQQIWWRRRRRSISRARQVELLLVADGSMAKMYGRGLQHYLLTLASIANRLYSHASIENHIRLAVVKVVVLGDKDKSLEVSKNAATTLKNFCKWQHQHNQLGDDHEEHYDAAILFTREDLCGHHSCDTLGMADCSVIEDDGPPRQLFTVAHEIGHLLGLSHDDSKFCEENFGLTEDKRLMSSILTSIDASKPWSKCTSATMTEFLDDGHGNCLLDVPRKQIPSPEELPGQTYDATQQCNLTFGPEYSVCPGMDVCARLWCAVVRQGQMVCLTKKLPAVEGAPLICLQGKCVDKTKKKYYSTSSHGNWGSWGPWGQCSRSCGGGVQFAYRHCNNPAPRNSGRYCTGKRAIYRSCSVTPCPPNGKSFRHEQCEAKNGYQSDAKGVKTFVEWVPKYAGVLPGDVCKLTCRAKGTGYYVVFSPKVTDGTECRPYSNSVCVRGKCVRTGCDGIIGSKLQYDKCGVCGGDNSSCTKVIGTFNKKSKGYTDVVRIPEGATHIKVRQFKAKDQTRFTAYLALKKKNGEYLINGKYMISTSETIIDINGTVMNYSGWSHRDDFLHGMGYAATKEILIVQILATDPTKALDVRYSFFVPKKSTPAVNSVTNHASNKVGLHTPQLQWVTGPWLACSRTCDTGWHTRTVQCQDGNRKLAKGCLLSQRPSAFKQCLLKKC
Procedure: as §1

human MMP1 = target: T3, human MMP1 (Homo sapiens, UniProt P03956); experiment: FRET-based human MMP1 assay (selectivity of 02F03); format: biochemical; settings: data not shown
T3 sequence (P03956 100-469): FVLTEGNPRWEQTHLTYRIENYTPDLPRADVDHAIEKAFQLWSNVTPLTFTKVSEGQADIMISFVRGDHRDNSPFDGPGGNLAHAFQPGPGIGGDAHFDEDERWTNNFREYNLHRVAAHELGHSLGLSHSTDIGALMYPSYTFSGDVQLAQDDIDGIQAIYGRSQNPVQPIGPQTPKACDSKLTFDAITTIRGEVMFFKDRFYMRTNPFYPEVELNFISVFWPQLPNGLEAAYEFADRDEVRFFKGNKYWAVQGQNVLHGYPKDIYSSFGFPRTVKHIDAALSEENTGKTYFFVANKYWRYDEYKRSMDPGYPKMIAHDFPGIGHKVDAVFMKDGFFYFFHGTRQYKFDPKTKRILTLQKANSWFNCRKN
Procedure: To confirm the selectivity of ISVD 02F03 for ADAMTS5, inhibition of the enzymatic activity of MMP1, MMP14 and ADAMTS4 was evaluated via FRET-based assays and a human ADAMTS4 AlphaLISA, with the respective enzymes.
Activated human MMP1 or MMP14 was incubated for 30 minutes at room temperature with 10 μl of dilution series of ISVD 02F03. After incubation, 20 μl of respectively 5 μM or 2.5 μM fluorogenic peptide substrate (Mca-PLGL-Dpa-AR-NH2 Fluorogenic MMP Substrate (R&D Systems cat #ES001)) was added. The ability of ISVD 02F03 to prevent MMP1- and MMP14-mediated cleavage was monitored every minute for 2 hours at 37° C. on a Tecan Infinite M1000 plate reader.

Human FRET % inhibition (human ADAMTS5): 89%
SPR based off-rate, kd, Cyno ADAMTS-5 [1]: 2.2e-05 s⁻¹
SPR based off-rate, kd, Guinea pig ADAMTS-5 (guinea pig ADAMTS5): 3.4e-05 s⁻¹
inhibition of MMP1 activity (human MMP1): did not show any inhibition
B1: ISVD 02F03: immunoglobulin single variable domain which specifically binds ADAMTS5 (protein)
VHH: EVQLVESGGGVVQPGGSLRLSCAASGRTVSSYAMGWFRQAPGKEREFVAGISRSAERTYYVDSLKGRFTISRDNSKNTVYLQMNSLRPEDTALYYCAADLDPNRIFSREEYAYWGQGTLVTVSS
modifications: Description of Artificial Sequence: Synthetic anti-ADAMTS5 immunoglobulin single variable domain (ISVD)

— patent publication US20240181006A1, “POLYPEPTIDES BINDING ADAMTS5, MMP13 AND AGGRECAN” (Merck Patent GmbH, priority 2017, published 2024)
